In the supplement of paper PMC10567573:
± gives the standard deviation.

Test: protein stability index of a GFP-peptide fusion (GPS, HEK-293T) (PSI 1-6); higher = more stable
Conditions: c terminus: a fixed tail appended
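Also: 24-mer peptide tiles fused after GFP, lentivirally expressed, FACS-sorted into six equal bins by GFP/DsRed ratio, decoded by Illumina sequencing, PSI is the read-weighted mean bin number.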

Sequence | protein stability index (treatment: DMSO) | protein stability index (treatment: MLN4924 1 uM, 8 h)
LWEAPPLGAGGGSLLPGAVEQPQP [NEK8] | 4.42 ± 0.13 | 4.36 ± 0.15
QSLKGHLRNNFQKQLLSNKELILD [ZC2HC1C] | 3.08 ± 0.3 | 3.17 ± 0.29
FLPLNSAQTLHHKSCYNGRFQLLY [DNAAF3] | 2.54 ± 0.32 | 2.38 ± 0.36
RNTGAYTSSGLATASFRTSKYLLE [TEKT4] | 3.1 ± 0.26 | 3.16 ± 0.22
STCDTLGMADVGTVCDPARSCAIV [ADAMTS4] | 3.92 ± 0.34 | 3.69 ± 0.083
GLNHSLSYDVALHRTRLQDLRVLV [SCARA5] | 2.2 ± 0.34 | 2.13 ± 0.1
FAPLLDEQYDLATKRVRQLLDLDP [GOLPH3] | 2.64 ± 0.48 | 2.94 ± 0.33
ESLLAPLNVELDPEIQKVRAQERE [KRT71] | 5.54 ± 0.44 | 5.48 ± 0.2
AQGPNKPGYLVGRNNANGVDLNRN [CPN1] | 4.33 ± 0.11 | 4.35 ± 0.16
GKTYCKRDYVRLFGIKCAKCQVGF [ISL2] | 2.03 ± 0.19 | 2.17 ± 0.23
FKLTNKNSDRMTHCGVLEFVADEG [UFD1] | 3.32 ± 0.18 | 3.27 ± 0.31
VLSLVKKHYRLQFYMFAWTHVTLL [CDS1] | 3.25 ± 0.56 | 2.8 ± 0.56
LLPQERPLMQGPRTRPRKPIRCGE [KLHL20] | 3.71 ± 0.35 | 3.98 ± 0.084
LLDEEEALAKKFIDKNTQLTLQVY [TRIM14] | 2.53 ± 0.42 | 2.72 ± 0.34
PGLLEEDNQWMTQINRLQKLIDRL [NECAB1] | 2.51 ± 0.23 | 2.88 ± 0.2
GSVYFWATPRQVPSLQHLCRMSIR [WSB1] | 3.05 ± 0.2 | 2.7 ± 0.043
SSFPPSPGPSPDVQLATLAQRVKE [AUP1] | 5.1 ± 0.26 | 5.05 ± 0.15
MAGAATGSRTPGRSELVEGCGWRC [TRIM14] | 3.46 ± 0.32 | 3.61 ± 0.26
MQFLIRSHECKPEGYEFCHNRKVL [PPEF2] | 2.28 ± 0.34 | 2.55 ± 0.18
YNCGEESLQSCMHFQPNSPASDLE [NANOGP8] | 4.51 ± 0.19 | 4.17 ± 0.45
GALMEVMQKRSKAIHSSDEDEDED [WASL] | 5.49 ± 0.19 | 5.41 ± 0.17
DLEEERREEEEKTPPETKPDPPVN [PCMTD2] | 5.64 ± 0.37 | 5.48 ± 0.48
DQDGDQAPEYRGRTELLKDAIGEG [MOG] | 5.33 ± 0.34 | 5.43 ± 0.21

Sequence | protein stability index (treatment: DMSO) | protein stability index (treatment: MLN4924 1 uM, 8 h)
KVVHAVDGTAENGIHPLSSSEVDE [PALM] | 5.25 ± 0.11 | 5.47 ± 0.19
VVELLLAHGADPTHRLKDGSTMLI [ANKRD17] | 2.13 ± 0.34 | 2.27 ± 0.85
LTQKKPFADEKNILHIMVKVVKGH [RIPK4] | 2.01 ± 0.18 | 1.79 ± 0.48
QARTQKLQGLIPGARYEVTVVSVR [TNXB] |  | 2.22 ± 0.42
EPQPFVTSDVYSSDAAFGGILERY [MYORG] | 3.79 ± 0.095 | 3.87 ± 0.058
QASCDEAHKMKFSDLFSLAEEYED [INTS3] | 4.61 ± 0.23 | 4.77 ± 0.27
IEELEREAERKIIEENITSAAPSN [SRPK2] | 5.34 ± 0.15 | 5.17 ± 0.25
LFVADAYKGLFEVNPWKREVKLLL [APMAP] | 2.56 ± 0.27 | 2.34 ± 0.9
IKENAQDTMRQINKKGFWSYGPVI [TOR1AIP2] | 2.51 ± 0.45 | 2.52 ± 0.26
TFSLKTVLMIAIQLISRMEYVHSK [CSNK1G3] | 3.5 ± 0.67 | 3.16 ± 0.46
ISVLQQQGSLSNTYLSKVDPDGKK [FBXO33] | 4.45 ± 0.18 | 4.46 ± 0.2
GEEQSQYMHVGSCQHLSSSAEELR [KCNA3] | 4.83 ± 0.25 | 4.52 ± 0.2
QRRSMVSPNFGFMGQLLQYESEIL [DUSP5] | 2.5 ± 0.29 | 2.45 ± 0.38
EDDGLQSAFTAAHELGHVFNMLHD [ADAMTS4] | 3.77 ± 0.28 | 3.9 ± 0.4
LEGQSGVTIKHVACGDFFTACLTD [NEK8] | 2.75 ± 0.28 | 2.89 ± 0.47
IRSMDPSALASDRFNLILADTNSD [DCAF4] | 4 ± 0.14 | 3.85 ± 0.11
TELRLLGRTHSACDALRTLAEARR [RSAD1] | 3.46 ± 0.21 | 3.59 ± 0.18
IAELLEVFDLRMMVANILNNEAFM [RHOBTB2] | 3.36 ± 0.2 | 2.98 ± 0.55
LPLMDLCRRSVRLALGRERLGEIH [SPSB1] | 2.56 ± 0.28 | 2.42 ± 0.29
NYVLEEVDEAAAESPSFLSLRKGA [NCK2] | 4.75 ± 0.2 | 4.83 ± 0.13
PQTLIMAYDYAKEVNSAEELEGLI [FEM1C] | 3.75 ± 0.32 | 3.56 ± 0.27
KTFYKTADISQMLVCTADGDIHLS [TAF7L] | 2.47 ± 0.19 | 2.41 ± 0.34
RTLWSGLPATLVMTVPATAIYFTA [SLC25A39] | 3.07 ± 0.42 | 3.1 ± 0.68

Sequence | protein stability index (treatment: DMSO) | protein stability index (treatment: MLN4924 1 uM, 8 h)
KGELAPELGEEPQPRDEEEAELEL [POLD4] | 5.44 ± 0.23 | 5.69 ± 0.13
KFPGQSSFLWQRGRKFLQKHLNAS [TOR1AIP2] | 2.47 ± 0.14 | 2.51 ± 0.22
CPPLHIPGSMSEVQELCKQLHAKI [TNNI2] | 2.88 ± 0.3 | 2.93 ± 0.14
AKQLFRKLNEQSPTRCTLEAGAMT [SEC22B] | 2.45 ± 0.21 | 2.6 ± 0.17
IPSEEWPNPPTLQEAGLSHTEVLF [FAF2] | 3.8 ± 0.23 | 3.81 ± 0.21
CGRKLAKDGEYCWRWTGFNFGFDL [GMCL1] | 2.72 ± 0.54 | 2.71 ± 0.91
NHGQVVSYLLKSGADKEILTTKGE [ANKRD40] | 4.08 ± 0.28 | 3.9 ± 0.26
QPELPCAMAMGTPSTTERISTSGQ [PXN] | 4.72 ± 0.12 | 4.9 ± 0.17
RLRASFSRKPSLKGNREDSARMSA [PLEKHN1] | 4.08 ± 0.21 | 4.21 ± 0.078
VVFLSPLTTFQDQLNRRGEFIQEI [OAS1] | 2.47 ± 0.5 | 2.35 ± 0.48
VLNDRFQRQKYLSLQQMQELSNIL [NANOGP8] | 2.52 ± 0.11 | 2.64 ± 0.32
SCKEGLSPRGPAPGEEKFENLEGV [ZNF263] | 5.37 ± 0.16 | 5.23 ± 0.36
KISKEEMVRRLKMVVKTFMDMDQD [PDS5B] | 2.26 ± 0.21 | 2.23 ± 0.25
QMVSAIVRTMQNTNDVETARCTAG [CTNNB1] | 2.87 ± 0.12 | 2.93 ± 0.3
LKAKLQMTEAALALSEQKAQDLGE [LRRC45] | 4.51 ± 0.36 | 4.57 ± 0.28
DLMVEATPRRVFANAHTYHINSIS [PPP2R2B] | 2.58 ± 0.23 | 2.49 ± 0.3
GLSSSSARFLSRSIPSLQSEYVHY [CDC14A] | 2.97 ± 0.53 | 3.02 ± 0.21
RHIHHLGNQLQLNQHCLDTAFNFF [BRF1] | 2.29 ± 0.23 | 2.3 ± 0.16
LEISPDCSQYDRVYCGAGVQKEHE [PCMTD2] | 4.56 ± 0.3 | 4.44 ± 0.21
SQHCKPEEGLEARGEALGLVGAQA [MAGEA3] | 4.73 ± 0.2 | 4.73 ± 0.22
KIGCGNFGELRLGKNLYTNEYVAI [CSNK1G1] | 2.51 ± 0.54 | 2.12 ± 0.59
KSSSLLTQTSEECNGILTEKMEEE [ZNF396] | 5.56 ± 0.15 | 5.54 ± 0.27
LDKQMSRDEHRARAMKIPFTNDKI [NFE2L1] | 4.13 ± 0.32 | 4.28 ± 0.25

Sequence | protein stability index (treatment: DMSO) | protein stability index (treatment: MLN4924 1 uM, 8 h)
AVCKATTHEVMGPKKKHLDYLIQA [SNAP91] | 3.06 ± 0.29 | 2.96 ± 0.14
VQRIMVANIEEVLQRGEALSALDS [SEC22B] | 2.85 ± 0.17 | 3.05 ± 0.39
LQLETVLEGVVSQIDAVGSKLKML [PKD2L1] | 2.37 ± 0.42 | 2.37 ± 0.11
ISDNSISWSAGLHNRYTENSLRGV [FUT8] | 2.87 ± 0.29 | 2.87 ± 0.15
ILTERVSLPFKPFAIILPILLNIR [MIA2] | 2.25 ± 0.55 | 3.79 ± 0.64
IEKEYQPHVIVSTTGPNPFTTLTD [ADD1] | 3.74 ± 0.25 | 3.9 ± 0.23
MGCHGFRDPFECNMCGYHSQDRYE [IKZF1] | 3.2 ± 0.11 | 3 ± 0.3
VKKDHVALQVPRGKEDSTLQLLRE [CBY2] | 4.26 ± 0.069 | 4.37 ± 0.07
AQAAAAESDSRKVAEETPDGAPAL [PRKX] | 5.38 ± 0.092 | 5.55 ± 0.12
DEPQETAYRTQVSSCCLHICQGIR [PKD2L1] | 2.8 ± 0.61 | 3.1 ± 0.46
LHLAAQGRHAQTVETLLRHGAHIN [RIPK4] | 2.4 ± 0.31 | 2.98 ± 0.51
KQLLNSAVIAQQRRKPDPPKDENE [DLC1] | 5.35 ± 0.28 | 5.41 ± 0.12
KCIFTQFRIILGDFDYNAIDNANR [PKD2L1] | 2.41 ± 0.32 | 2.52 ± 0.36
KTAHDSNVLHVARLPNRQLISCSE [WDR41] | 3.6 ± 0.28 | 3.57 ± 0.35
QKLETDAMFRLEHGEADRSTLKKA [YJU2B] | 5.22 ± 0.22 | 5.03 ± 0.14
SRETECSRVGKQSFIITLGCNSVL [CARM1] | 2.3 ± 0.66 | 2.09 ± 0.38
DTEVITVEKSSPATSLFVELDEEE [BCL2L13] | 5.39 ± 0.065 | 5.54 ± 0.25
NSGTDQEQIHLLLSSQCFSNISRP [M1AP] | 2.98 ± 0.21 | 3.18 ± 0.27
CAGPGFTHNIAHGSLGFEPVYVSC [SPAG8] | 2.48 ± 0.75 | 2.49 ± 0.64
HHGGDYKHWREWGSHAQTSQIQSI [CRYBA1] | 3.1 ± 0.14 | 3.19 ± 0.26
FLPGYVGGIQEGAVTPAGVVNKYQ [DHCR7] | 3.42 ± 0.21 | 3.45 ± 0.24
